According to PMC3477164, “Improved eIF4E Binding Peptides by Phage Display Guided Design: Plasticity of Interacting Surfaces Yield Collective Effects” (PLoS ONE, 2012):
Ends that are not written are not given here.

B1: eIF4G1 wild type peptide (peptide)
peptide: KKRYDREFLLGF
notes: also called eIF4G1-WT; eIF4G1 peptide; source: synthetic peptide (Mimotopes), HPLC purified to >90%
B2: PHAGESOL peptide (peptide)
peptide: KKRYSRDQLVAL
notes: phage display selected 12-mer … with its N-terminal SLH changed to KKR of the eIF4G1 peptide; source: synthetic peptide (Mimotopes), HPLC purified to >90%
B3: PHAGESOL-D7E peptide (peptide)
peptide: KKRYSREQLVAL
notes: PHAGESOL with D7E; source: synthetic peptide (Mimotopes), HPLC purified to >90%
B4: PHAGESOL-L12F peptide (peptide)
peptide: KKRYSRDQLVAF
notes: PHAGESOL with L12F; source: synthetic peptide (Mimotopes), HPLC purified to >90%
B5: PHAGESOL-Q8F peptide (peptide)
peptide: KKRYSRDFLVAL
notes: PHAGESOL with Q8F; source: synthetic peptide (Mimotopes), HPLC purified to >90%
B6: PHAGESOL-Q8F/L12F peptide (peptide)
peptide: KKRYSRDFLVAF
notes: PHAGESOL with Q8F and L12F; source: synthetic peptide (Mimotopes), HPLC purified to >90%
B7: VL-PHAGESOL peptide (peptide)
peptide: KKRYSRDQLLAL
notes: PHAGESOL with V10L; also called PHAGESOL V10L; source: synthetic peptide (Mimotopes), HPLC purified to >90%
B8: VL-PHAGESOL-L12F peptide (peptide)
peptide: KKRYSRDQLLAF
notes: PHAGESOL with V10L and L12F; source: synthetic peptide (Mimotopes), HPLC purified to >90%
B9: VL-PHAGESOL-Q8F peptide (peptide)
peptide: KKRYSRDFLLAL
notes: PHAGESOL with V10L and Q8F; source: synthetic peptide (Mimotopes), HPLC purified to >90%
B10: VL-PHAGESOL-Q8F/L12F peptide (peptide)
peptide: KKRYSRDFLLAF
notes: PHAGESOL with V10L, Q8F and L12F; source: synthetic peptide (Mimotopes), HPLC purified to >90%
B11: eIF4G1-D5C peptide (peptide)
peptide: KKRYCREFLLGF
notes: eIF4G1 peptide with D5C; source: synthetic peptide (Mimotopes), HPLC purified to >90%
B12: eIF4G1-D5E peptide (peptide)
peptide: KKRYEREFLLGF
notes: eIF4G1 peptide with D5E; also called eIF4G-D5E; source: synthetic peptide (Mimotopes), HPLC purified to >90%
B13: eIF4G1-D5G peptide (peptide)
peptide: KKRYGREFLLGF
notes: eIF4G1 peptide with D5G; source: synthetic peptide (Mimotopes), HPLC purified to >90%
B14: eIF4G1-D5N peptide (peptide)
peptide: KKRYNREFLLGF
notes: eIF4G1 peptide with D5N; source: synthetic peptide (Mimotopes), HPLC purified to >90%
B15: eIF4G1-D5P peptide (peptide)
peptide: KKRYPREFLLGF
notes: eIF4G1 peptide with D5P; source: synthetic peptide (Mimotopes), HPLC purified to >90%
B16: eIF4G1-D5S peptide (peptide)
peptide: KKRYSREFLLGF
notes: eIF4G1 peptide with D5S; also called eIF4G-D5S; source: synthetic peptide (Mimotopes), HPLC purified to >90%
B17: eIF4G1-D5T peptide (peptide)
peptide: KKRYTREFLLGF
notes: eIF4G1 peptide with D5T; source: synthetic peptide (Mimotopes), HPLC purified to >90%
B18: eIF4G1-E7D peptide (peptide)
peptide: KKRYDRDFLLGF
notes: eIF4G1 peptide with E7D; also called E7D mutant peptide; source: synthetic peptide (Mimotopes), HPLC purified to >90%
B19: eIF4G1-F8Q peptide (peptide)
peptide: KKRYDREQLLGF
notes: eIF4G1 peptide with F8Q; also called eIF4G-F/Q; source: synthetic peptide (Mimotopes), HPLC purified to >90%
B20: eIF4G1-F12L peptide (peptide)
peptide: KKRYDREFLLGL
notes: eIF4G1 peptide with F12L; also called F12L mutant peptide; source: synthetic peptide (Mimotopes), HPLC purified to >90%
B21: eIF4G1-G11A peptide (peptide)
peptide: KKRYDREFLLAF
notes: eIF4G1 peptide with G11A; source: synthetic peptide (Mimotopes), HPLC purified to >90%
B22: eIF4G1-L10V peptide (peptide)
peptide: KKRYDREFLVGF
notes: eIF4G1 peptide with L10V; source: synthetic peptide (Mimotopes), HPLC purified to >90%
B23: eIF4G1-OPT peptide (peptide)
peptide: KKRYSREFLLAF
notes: eIF4G1 peptide with D5 changed to S and G11 changed to A; source: synthetic peptide (Mimotopes), HPLC purified to >90%
B24: eIF4G1-QL peptide (peptide)
peptide: KKRYDREQLLGL
notes: eIF4G1 peptide with F8Q and F12L; also called eIF4G1_F8Q/F12L; source: synthetic peptide (Mimotopes), HPLC purified to >90%

Assays:
[1] = Solubility of the peptide as observed on handling; assay type: physicochemical; conditions: qualitative observation
eIF4E = molecular target: T1, eIF4E (Homo sapiens, UniProt P06730); experiment: Fluorescence based thermal shift (thermal stability) assay, Sypro Red; assay type: binding; conditions: shift of eIF4E Tm, 10 µM eIF4E, 100 µM peptide, PBS, 20 to 90°C at 1°C/min, Ex/Em 533/640 nm
T1 construct: Full-length human eIF4E was expressed and purified as described previously; made in house
T1 sequence (P06730 whole entry): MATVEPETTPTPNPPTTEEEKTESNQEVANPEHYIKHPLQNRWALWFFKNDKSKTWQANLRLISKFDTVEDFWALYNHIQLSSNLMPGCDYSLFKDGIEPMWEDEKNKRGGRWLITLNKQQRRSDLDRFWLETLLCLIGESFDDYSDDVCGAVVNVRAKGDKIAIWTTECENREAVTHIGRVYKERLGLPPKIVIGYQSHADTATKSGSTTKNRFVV
Protocol: A fluorescence based thermal shift assay was used to screen and rank the rationally designed eIF4E binding derivative peptides. The fluorescent dye Sypro Red (Invitrogen) was used to monitor thermal denaturation of eIF4E. Binding of the dye molecule to eIF4E, as it unfolds due to thermal denaturation, results in a sharp increase in the fluorescence intensity. The midpoint of this transition is termed the Tm. The thermal shift assay was conducted in a LightCycler (Roche). Protein samples studied were made up to a total volume of 50 µl in PBS (Phosphate Buffered Saline) with Sypro Red, (Invitrogen, 5000× DMSO stock) at a 3.125× concentration. The final protein concentration was 10 µM. Protein samples were incubated with derivative peptides at a concentration of 100 µM. […] The fluorescence intensity was measured with Ex/Em:533/640 nm.
The fluorescence data against temperature derived from the LightCycler were fitted to Eq. (1) to obtain ΔHu, ΔCpu, and Tm by nonlinear regression using the program Prism 4.0, Graphpad: [drawing 1] (1) where Ft is the fluorescence intensity at temperature T; Tm is the midpoint temperature of the protein-unfolding transition, Fpre and Fpost are the pretransitional and posttransitional fluorescence intensities, respectively, R is the gas constant, ΔHu is the enthalpy of protein unfolding, and ΔCpu is the heat capacity change on protein unfolding. […]

[2] = molecular target: T2, Eukaryotic initiation factor 4E (eIF4E), full-length human (human, UniProt P06730 1-217); experiment: SPR; eIF4E amine coupled to a CM5 chip (about 1000 RU, m7GTP present at immobilisation), peptides injected; 10 mM Hepes pH 7.6, 0.15 M NaCl, 1 mM DTT, 0.1% Tween20, 3% DMSO; Biacore T100; Kd from the association and dissociation phases (Kkin), 1:1 model, three titrations; conditions: both partners purified
T2 construct: eIF4E, human, full length
T2 sequence (P06730 whole entry): as above

[3] = molecular target: T2, Eukaryotic initiation factor 4E …; experiment: SPR; eIF4E amine coupled to a CM5 chip (about 1000 RU, m7GTP present at immobilisation), peptides injected; 10 mM Hepes pH 7.6, 0.15 M NaCl, 1 mM DTT, 0.1% Tween20, 3% DMSO; Biacore T100; Kd from the equilibrium responses (Keq), 1:1 model, three titrations; conditions: both partners purified
[4] = molecular target: T2, Eukaryotic initiation factor 4E …; experiment: fluorescence based thermal shift assay; 10 uM eIF4E with 100 uM peptide in PBS, Sypro Red, heated from 20 to 90 °C at 1 °C/min; Kd estimated from the Tm shift (enthalpy of binding taken to be -5 kcal/mol); conditions: both partners purified
[5] = molecular target: T2, Eukaryotic initiation factor 4E …; experiment: SPR; eIF4E amine coupled to a CM5 chip (about 1000 RU, m7GTP present at immobilisation), peptides injected; 10 mM Hepes pH 7.6, 0.15 M NaCl, 1 mM DTT, 0.1% Tween20, 3% DMSO; Biacore T100; Kd from the association and dissociation phases (Kkin), 1:1 model, three titrations; conditions: both partners purified; remark: listed apart in the source
[6] = molecular target: T2, Eukaryotic initiation factor 4E …; experiment: SPR; eIF4E amine coupled to a CM5 chip (about 1000 RU, m7GTP present at immobilisation), peptides injected; 10 mM Hepes pH 7.6, 0.15 M NaCl, 1 mM DTT, 0.1% Tween20, 3% DMSO; Biacore T100; Kd from the equilibrium responses (Keq), 1:1 model, three titrations; conditions: both partners purified; remark: listed apart in the source
[7] = molecular target: T2, Eukaryotic initiation factor 4E …; experiment: SPR; eIF4E amine coupled to a CM5 chip (about 1000 RU, m7GTP present at immobilisation), peptides injected; 10 mM Hepes pH 7.6, 0.15 M NaCl, 1 mM DTT, 0.1% Tween20, 3% DMSO; Biacore T100; Kd from the association and dissociation phases (Kkin), 1:1 model, three titrations; conditions: both partners purified; remark: listed apart in the source
[8] = molecular target: T2, Eukaryotic initiation factor 4E …; experiment: SPR; eIF4E amine coupled to a CM5 chip (about 1000 RU, m7GTP present at immobilisation), peptides injected; 10 mM Hepes pH 7.6, 0.15 M NaCl, 1 mM DTT, 0.1% Tween20, 3% DMSO; Biacore T100; Kd from the equilibrium responses (Keq), 1:1 model, three titrations; conditions: both partners purified; remark: listed apart in the source

Molecule | Kd [2] | Kd [3] | Kd [4] | thermal shift (Tm) [4] | Kd [5] | Kd [6] | other results
KKRYSRDQLVAL [PHAGESOL] |  |  |  |  |  |  | solubility of the peptide (in words) [1]: soluble
SLHYSRDQLVAL [PHAGE, phage display selected 12mer […]] |  |  |  |  |  |  | solubility of the peptide (in words) [1]: insoluble; Thermal Shift (Tm, °C) (eIF4E): no observable shift
B1 | 524 ± 61.6 nM | 580 ± 16.7 nM | 460 nM | 7.03 ± 0.1 °C |  |  | 
B2 | 77.1 ± 9 nM | 76.7 ± 3.4 nM | 77 nM | 9.83 ± 0.1 °C |  |  | 
B3 |  |  |  |  | 52.9 ± 2.1 nM | 51.6 ± 1.8 nM | 
B4 |  |  |  |  | 120 ± 5.3 nM | 112 ± 2.7 nM | 
B5 |  |  |  |  | 184 ± 15.4 nM | 196 ± 6.3 nM | 
B6 |  |  |  |  | 374 ± 33.1 nM | 348 ± 20.9 nM | 
B7 |  |  |  |  | 34.7 ± 1.2 nM | 37.2 ± 1.6 nM | 
B8 |  |  |  |  | 40.7 ± 3.8 nM | 43.21 ± 0.34 nM | 
B9 |  |  |  |  | 47.1 ± 1.5 nM | 49.6 ± 4.3 nM | 
B10 |  |  |  |  | 62 ± 3.5 nM | 69.9 ± 6.4 nM | 
B11 |  |  |  |  |  |  | Kd [7]: 458 ± 19.8 nM; Kd [8]: 436 ± 6.4 nM
B12 |  |  |  |  |  |  | Kd [7]: 692 ± 31.2 nM; Kd [8]: 749 ± 57.7 nM
B13 |  |  |  |  |  |  | Kd [7]: 440 ± 26 nM; Kd [8]: 468 ± 28.1 nM
B14 |  |  |  |  |  |  | Kd [7]: 388.9 ± 1.6 nM; Kd [8]: 444.5 ± 1.6 nM
B15 |  |  |  |  |  |  | Kd [7]: 717 ± 31.2 nM; Kd [8]: 684 ± 13.6 nM
B16 | 99.9 ± 6.2 nM | 103 ± 2.3 nM | 100 nM | 8.97 ± 0.07 °C |  |  | 
B17 |  |  |  |  |  |  | Kd [7]: 105 ± 7.2 nM; Kd [8]: 110 ± 1.8 nM
B18 | 759 ± 70.7 nM | 784 ± 21.5 nM | 520 nM | 6.87 ± 0.18 °C |  |  | 
B19 | 1780 ± 406 nM | 1630 ± 75.1 nM | 2000 nM | 5 ± 0.03 °C |  |  | 
B20 | 718 ± 98 nM | 761 ± 63.8 nM | 520 nM | 6.87 ± 0.12 °C |  |  | 
B21 | 282 ± 17.6 nM | 309 ± 11.6 nM | 200 nM | 8.13 ± 0.12 °C |  |  | 
B22 | 2680 ± 444 nM | 4540 ± 622 nM | 4400 nM | 3.9 ± 0.03 °C |  |  | 
B23 |  |  |  |  | 59.4 ± 2.9 nM | 52.2 ± 1.4 nM | 
B24 |  |  |  |  | 1090 ± 106 nM | 1090 ± 49.9 nM | 
